This note sets out measurements from article PMC10033678, “The RRM-mediated RNA binding activity in T. brucei RAP1 is essential for VSG monoallelic expression”.

Series [1] addresses T1, TbRAP1 639-733 (RRM) (Trypanosoma brucei) (UniProt C1JEX5).
T1 sequence: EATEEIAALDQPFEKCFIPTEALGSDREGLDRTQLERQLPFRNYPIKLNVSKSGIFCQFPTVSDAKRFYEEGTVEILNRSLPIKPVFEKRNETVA
Description: fluorescence polarization. As to conditions: EMSA: 20 mM HEPES pH 7.9, 235 mM KCl, 1 mM MgCl2, 0.1 mM EDTA, 100 ng/ul BSA, 5% glycerol, 1 mM DTT, room temp 30 min; FP: 20 mM sodium phosphate pH 7.0, 50 mM …. On the technique in general: In fluorescence polarisation assays a small probe gives low polarisation when free and higher when bound to something large.

Another series has as its target TbRAP1 639-761 5A (Trypanosoma brucei, UniProt C1JEX5 639-761, R737A;K738A;R739A;R740A;R741A). As to the kind of experiment: fluorescence polarization; EMSA: 20 mM HEPES pH 7.9, 235 mM KCl, 1 mM MgCl2, 0.1 mM EDTA, 100 ng/ul BSA, 5% glycerol, 1 mM DTT, room temp 30 min; FP: 20 mM sodium phosphate pH 7.0, 50 mM. As to conditions: protein: recombinant; label: 5' 6-FAM.

In series [2] the target is T2, TbRAP1 639-761 (RRM+DB) (Trypanosoma brucei, UniProt C1JEX5 639-761). Described as above. As to conditions: protein: recombinant; tags: none (TrxA-His6 removed by 3C for EMSA); label: 5' 6-FAM. On the technique in general: Mobility shift assays separate free from complexed probe on a gel.
The target in series [3] is T3, TbRAP1 639-733 (RRM) (Trypanosoma brucei, UniProt C1JEX5 639-733). As to the kind of experiment: NMR titration; EMSA: 20 mM HEPES pH 7.9, 235 mM KCl, 1 mM MgCl2, 0.1 mM EDTA, 100 ng/ul BSA, 5% glycerol, 1 mM DTT, room temp 30 min; FP: 20 mM sodium phosphate pH 7.0, 50 mM. Particulars: protein: recombinant, tags: none (TrxA-His6 removed by 3C for EMSA).
Series [4] has as its target T2, TbRAP1 639-761 (RRM+DB). Description: EMSA; EMSA: 20 mM HEPES pH 7.9, 235 mM KCl, 1 mM MgCl2, 0.1 mM EDTA, 100 ng/ul BSA, 5% glycerol, 1 mM DTT, room temp 30 min; FP: 20 mM sodium phosphate pH 7.0, 50 mM. As to conditions: protein: recombinant, tags: none (TrxA-His6 removed by 3C for EMSA).
In a further series the target is TbRAP1 639-733 2FQ (Trypanosoma brucei, UniProt C1JEX5 639-733, F655Q;F694Q). The description is as above. Particulars: protein: recombinant, tags: none (TrxA-His6 removed by 3C).
For series [5], the target named is T4, TbRAP1 639-733 2FL (Trypanosoma brucei, UniProt C1JEX5 639-733, F655L;F694L). The description is as above. Particulars: protein: recombinant, tags: none (TrxA-His6 removed by 3C for EMSA).
The target in another series is TH6-TbRAP1 639-761 5A (Trypanosoma brucei, UniProt C1JEX5 639-761, R737A;K738A;R739A;R740A;R741A). The series is described as above. Particulars: protein: recombinant, tags: TrxA-His6.
The target of the next series is TH6-TbRAP1 639-761 (Trypanosoma brucei, UniProt C1JEX5 639-761). The description is as above. As to conditions: protein: recombinant; tags: TrxA-His6; label: 32P.
The target of a further series is TH6-TbRAP1 639-733 (Trypanosoma brucei, UniProt C1JEX5 639-733). The description is as above. As to conditions: protein: recombinant; tags: TrxA-His6; label: 32P.
The target of a further series is TbRAP1 639-733 2FA (Trypanosoma brucei, UniProt C1JEX5 639-733, F655A;F694A). The description is as above. Particulars: protein: recombinant, tags: none (TrxA-His6 removed by 3C).
Series [6] concerns the target T2, TbRAP1 639-761 (RRM+DB). As to the kind of experiment: NMR titration; EMSA: 20 mM HEPES pH 7.9, 235 mM KCl, 1 mM MgCl2, 0.1 mM EDTA, 100 ng/ul BSA, 5% glycerol, 1 mM DTT, room temp 30 min; FP: 20 mM sodium phosphate pH 7.0, 50 mM. Particulars: protein: recombinant; tags: none (TrxA-His6 removed by 3C for EMSA).
Series [7] deals with T4, TbRAP1 639-733 2FL. Description: NMR titration; 3x molar excess RNA; EMSA: 20 mM HEPES pH 7.9, 235 mM KCl, 1 mM MgCl2, 0.1 mM EDTA, 100 ng/ul BSA, 5% glycerol, 1 mM DTT, room temp 30 min; FP: 20 mM sodium phosphate pH 7.0, 50 mM. Particulars: protein: recombinant; tags: none (TrxA-His6 removed by 3C for EMSA).
For series [8], the target named is T3, TbRAP1 639-733 (RRM). Description: EMSA; EMSA: 20 mM HEPES pH 7.9, 235 mM KCl, 1 mM MgCl2, 0.1 mM EDTA, 100 ng/ul BSA, 5% glycerol, 1 mM DTT, room temp 30 min; FP: 20 mM sodium phosphate pH 7.0, 50 mM. Particulars: protein: recombinant; tags: none (TrxA-His6 removed by 3C for EMSA); label: 32P end label.
The target in series [9] is TH6-TbRAP1 639-761 2FA&5A (Trypanosoma brucei, UniProt C1JEX5 639-761, F655A;F694A;R737A;K738A;R739A;R740A;R741A). The series is described as above. As to conditions: protein: recombinant; tags: TrxA-His6.

Usually Kd stands for the free concentration of one partner at which half of the binding sites on the other are occupied at equilibrium, for simple one-to-one binding. In [1], UGAUAUAUUUUAACAC [6-FAM-16-VSG-UTR] gave a Kd of 929 µM.
As to UGAUAUAUUUUAACAC (ssRNA) [6-FAM-16-VSG-UTR], the Kd with TbRAP1 639-761 5A is approximately 969 µM; in the series with TbRAP1 639-761 (RRM+DB) [2], approximately 258 µM.
For UUAGGGUUAGGG (ssRNA) [(UUAGGG)2], the binding result in the series with TbRAP1 639-733 (RRM) [3] is “no binding”.

B1: 80-dsDNA (dsDNA)
DNA 1: CGTGCAGAGCAGGAAAAAGCCACACGGGAACTCCTCCTGCAACAAACTTCAGCACCACATGCATCATCAGTTACATCCGG
DNA 2: CCGGATGTAACTGATGATGCATGTGGTGCTGAAGTTTGTTGCAGGAGGAGTTCCCGTGTGGCTTTTTCCTGCTCTGCACG
Take B1: the binding result with TbRAP1 639-761 (RRM+DB) [4] (label: 32P Klenow, blunt) was “binds”.

B2: 170-no-VSG (ssRNA)
RNA: GGGCGAAUUGGGUACCGGGCCCCCCCUCGAGGUCGACGGUAUCGAUAAGCUUGAUAUCGAAUUCAAUUCCAAAGAAGCCAUGCGCCGUGCAGAGCAGGAAAAAGCCACACGGGAACUCCUCCUGCAACAAACUUCAGCACCACAUGCAUCAUCAGUUACAUCCGGGAUCC
With B2, the binding result is recorded as “no binding” in the series with TbRAP1 639-733 2FQ (label: 32P); “no binding” in the series with TbRAP1 639-733 2FL [5] (label: 32P); “binds” with TH6-TbRAP1 639-761 5A (label: 32P); “binds” in the series with TH6-TbRAP1 639-761; “binds” with TH6-TbRAP1 639-733; “no binding” with TbRAP1 639-733 2FA (label: 32P). The binding result with TbRAP1 639-761 (RRM+DB) [4] (label: 32P) is “binds”.
Consider AAAACUUUUUGAUAUAUUUUAACACCAAAACCAG (ssRNA) [34-VSG-UTR], for which the binding result is listed as “binds” with TbRAP1 639-761 (RRM+DB) [6] and “no binding” with TbRAP1 639-733 2FL [7].
With UUGCUACUUGAAAACUUUUUGAUAUAUUUUAACAC (ssRNA) [35-VSG-UTR], the binding result in the series with TbRAP1 639-761 (RRM+DB) [4] (label: 32P end label) and in the series with TbRAP1 639-733 (RRM) [8] was “binds” throughout.
ACAGACCACUACAAGAUACACAGUACAACCAACCA (ssRNA) [35-random]: the binding result in the series with TbRAP1 639-733 (RRM) [3] (label: 32P end label in EMSA) was “no binding”.

B3: 170-VSG-UTR (ssRNA)
RNA: GGGCGAAUUGGGUACCGGGCCCCCCCUCGAGGUCGACGGUAUCGAUAAGCUUGAUAUCGAAUUCAAUUCAUUUCCCCCCUCAAAUUUCCCCCCUCCUUUUAAAAUUUUCCUUGCUACUUGAAAACUUUUUGAUAUAUUUUAACACCAAAACCAGCCGAGAUUUGGGAUCC
On to B3, for which the binding result with TbRAP1 639-733 2FQ is given as “no binding”; with TbRAP1 639-733 2FL [5], “no binding”; in the series with TH6-TbRAP1 639-761 5A, “binds”; in the series with TbRAP1 639-733 2FA, “no binding”; in series [9], “no binding”. Moreover, the Kd in the series with TbRAP1 639-761 (RRM+DB) [4] is approximately 0.173 µM.
